Laboratory results taken from publication PMC6778065, “BIN1 recovers tauopathy-induced long-term memory deficits in mice and interacts with Tau through Thr^348 phosphorylation” (Acta Neuropathologica, 2019).
Square brackets hold non-standard residues; d marks the D form. Ends that are not written are not given here. pT = C[C@@H](OP(=O)(O)O)[C@H](N)C(=O)O

T1: BIN1-SH3 domain (UniProt O00499 520-593)
T1 construct: SH3 domain of BIN1 (Amphiphysin 2); residue 559 lies in it (isoform 1 numbering); 15N-labelled for NMR; also called 15N-BIN1 SH3
T1 sequence (looked up): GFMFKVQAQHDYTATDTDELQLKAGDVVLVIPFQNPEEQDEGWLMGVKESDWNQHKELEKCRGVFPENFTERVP


How the values were obtained:
[1] = molecular target: T2, human Tau (MAPT transgene, hTau mouse hippocampus) (human, UniProt P10636-8 1-441); assay: proximity ligation; PLA in fixed hippocampal brain slices of 18-month-old control, hTau and hTau;TgBIN1 mice; primary antibodies BIN1-99D or α-tubulin DM1A (mouse) and Tau (rabbit); PLA spot density per tissue area; conditions: partners not purified
T2 construct: human Tau from the human MAPT transgene Tg(MAPT)8cPdav; source: transgenic mouse (hTau; hTau;TgBIN1; no endogenous murine Mapt), hippocampus, fixed brain slices

BIN1-SH3 domain = molecular target: T1, BIN1-SH3 domain; assay: NMR titration; 100 µM 15N-labeled BIN1-SH3 domain titrated with aliquots of 4 mM unlabeled peptide; 1H-15N HSQC chemical shift changes fitted to the saturation equation; 20 °C, 50 mM sodium phosphate pH 7.3, 30 mM NaCl, 3 mM DTT, 10% D2O; conditions: both partners purified

T2 sequence (P10636 other isoform, or with tags, fused parts or gaps): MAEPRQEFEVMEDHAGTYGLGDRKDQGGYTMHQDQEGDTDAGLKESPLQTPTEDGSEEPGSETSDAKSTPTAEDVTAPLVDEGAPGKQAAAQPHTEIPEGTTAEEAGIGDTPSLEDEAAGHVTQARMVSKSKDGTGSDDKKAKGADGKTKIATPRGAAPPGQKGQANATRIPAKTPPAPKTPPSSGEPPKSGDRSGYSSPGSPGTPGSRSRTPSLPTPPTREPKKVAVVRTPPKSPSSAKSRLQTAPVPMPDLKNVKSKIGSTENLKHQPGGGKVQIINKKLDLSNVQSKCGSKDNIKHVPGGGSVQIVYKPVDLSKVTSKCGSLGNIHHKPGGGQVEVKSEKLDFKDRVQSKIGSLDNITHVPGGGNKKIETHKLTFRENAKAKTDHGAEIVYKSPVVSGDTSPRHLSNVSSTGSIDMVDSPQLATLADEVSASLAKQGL

Row | fold PLA spot density against control mice [1] [fold] | fold PLA spot density against hTau mice [1] [fold] | Kd (BIN1-SH3 domain) [µM] | Binder
1 | 6.2 | 2.7 |  | human BIN1 (transgene, hTau;TgBIN1 mouse hippocampus) (natural protein, UniProt O00499 1-593, looked up, human BIN1 expressed under the control of its own promoter; endogenous mouse Bin1 is present in the same tissue; also called hBIN1; Amphiphysin 2; source: transgenic mouse (hTau;TgBIN1), hippocampus, fixed brain slices) MAEMGSKGVTAGKIASNVQKKLTRAQEKVLQKLGKADETKDEQFEQCVQNFNKQLTEGTRLQKDLRTYLASVKAMHEASKKLNECLQEVYEPDWPGRDEANKIAENNDLLWMDYHQKLVDQALLTMDTYLGQFPDIKSRIAKRGRKLVDYDSARHHYESLQTAKKKDEAKIAKPVSLLEKAAPQWCQGKLQAHLVAQTNLLRNQAEEELIKAQKVFEEMNVDLQEELPSLWNSRVGFYVNTFQSIAGLEENFHKEMSKLNQNLNDVLVGLEKQHGSNTFTVKAQPSDNAPAKGNKSPSPPDGSPAATPEIRVNHEPEPAGGATPGATLPKSPSQLRKGPPVPPPPKHTPSKEVKQEQILSLFEDTFVPEISVTTPSQFEAPGPFSEQASLLDLDFDPLPPVTSPVKAPTPSGQSIPWDLWEPTESPAGSLPSGEPSAAEGTFAVSWPSQTAEPGPAQPAEASEVAGGTQPAAGAQEPGETAASEAASSSLPAVVVETFPATVNGTVEGGSGAGRLDLPPGFMFKVQAQHDYTATDTDELQLKAGDVVLVIPFQNPEEQDEGWLMGVKESDWNQHKELEKCRGVFPENFTERVP
2 |  |  | 71 ± 13 | QLRKGPPVPPPPKHTPSKEVKQ (residues 334-355 of the CLAP domain of BIN1 isoform 1 (neuronal isoform); unlabeled peptide, 4 mM stock solution) [CLAP (334-355) peptide]
3 |  |  | 736 ± 70 | QLRKGPPVPPPPKH[pT]PSKEVKQ (residues 334-355 of the CLAP domain of BIN1 isoform 1 (neuronal isoform), phosphorylated on T348; unlabeled peptide, 4 mM stock solution; also called phospho-CLAP (334-355)) [phospho-T348 CLAP (334-355) peptide]
